# Results as given in the supplement of paper PMC10567573.
# B1: TBX6 (parent)
# chain: AFLELPHGSGGSGYPAAPPAVPFA
# Variants of: B1
# Assay: protein stability index of a GFP-peptide fusion (GPS, HEK-293T) (PSI 1-6); higher = more stable
# Conditions: c terminus: a fixed tail appended
# 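Note: lentivirally expressed fusions sorted by FACS into six bins by GFP to DsRed ratio, PSI derived from sequencing read proportions per bin multiplied by bin number.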
row,Variant,protein stability index
1,AFLELRHGSGGSGYPAAPPAVPFA [P6R],1.53
2,AFLELSHGSGGSGYPAAPPAVPFA [P6S],2.47
3,AFLELTHGSGGSGYPAAPPAVPFA [P6T],2.21
4,AFLELWHGSGGSGYPAAPPAVPFA [P6W],2.9
5,AFLELYHGSGGSGYPAAPPAVPFA [P6Y],2.36
6,AFLELPAGSGGSGYPAAPPAVPFA [H7A],2.29
7,AFLELPCGSGGSGYPAAPPAVPFA [H7C],2.12
8,AFLELPDGSGGSGYPAAPPAVPFA [H7D],2.9
9,AFLELPEGSGGSGYPAAPPAVPFA [H7E],2.83
10,AFLELPFGSGGSGYPAAPPAVPFA [H7F],1.85
11,AFLELPGGSGGSGYPAAPPAVPFA [H7G],2.74
12,AFLELPIGSGGSGYPAAPPAVPFA [H7I],2.39
13,AFLELPKGSGGSGYPAAPPAVPFA [H7K],2.69
14,AFLELPLGSGGSGYPAAPPAVPFA [H7L],1.97
15,AFLELPMGSGGSGYPAAPPAVPFA [H7M],2.1
16,AFLELPNGSGGSGYPAAPPAVPFA [H7N],2.2
17,AFLELPPGSGGSGYPAAPPAVPFA [H7P],2.78
18,AFLELPQGSGGSGYPAAPPAVPFA [H7Q],2.4
19,AFLELPRGSGGSGYPAAPPAVPFA [H7R],2.67
20,AFLELPSGSGGSGYPAAPPAVPFA [H7S],2.4
21,AFLELPTGSGGSGYPAAPPAVPFA [H7T],2.41
22,AFLELPVGSGGSGYPAAPPAVPFA [H7V],2.45
23,AFLELPWGSGGSGYPAAPPAVPFA [H7W],1.56
24,AFLELPYGSGGSGYPAAPPAVPFA [H7Y],2.34

row,Variant,protein stability index
1,AFLELPHASGGSGYPAAPPAVPFA [G8A],2.86
2,AFLELPHCSGGSGYPAAPPAVPFA [G8C],2.19
3,AFLELPHDSGGSGYPAAPPAVPFA [G8D],2.75
4,AFLELPHESGGSGYPAAPPAVPFA [G8E],3.31
5,AFLELPHFSGGSGYPAAPPAVPFA [G8F],1.71
6,AFLELPHHSGGSGYPAAPPAVPFA [G8H],2.27
7,AFLELPHISGGSGYPAAPPAVPFA [G8I],1.88
8,AFLELPHKSGGSGYPAAPPAVPFA [G8K],2.42
9,AFLELPHLSGGSGYPAAPPAVPFA [G8L],1.96
10,AFLELPHMSGGSGYPAAPPAVPFA [G8M],2.57
11,AFLELPHNSGGSGYPAAPPAVPFA [G8N],2.53
12,AFLELPHPSGGSGYPAAPPAVPFA [G8P],2.21
13,AFLELPHQSGGSGYPAAPPAVPFA [G8Q],2.02
14,AFLELPHRSGGSGYPAAPPAVPFA [G8R],2.1
15,AFLELPHSSGGSGYPAAPPAVPFA [G8S],2.71
16,AFLELPHTSGGSGYPAAPPAVPFA [G8T],2.27
17,AFLELPHVSGGSGYPAAPPAVPFA [G8V],1.68
18,AFLELPHWSGGSGYPAAPPAVPFA [G8W],1.93
19,AFLELPHYSGGSGYPAAPPAVPFA [G8Y],1.97
20,AFLELPHGAGGSGYPAAPPAVPFA [S9A],3.21
21,AFLELPHGCGGSGYPAAPPAVPFA [S9C],1.96
22,AFLELPHGDGGSGYPAAPPAVPFA [S9D],2.6
23,AFLELPHGEGGSGYPAAPPAVPFA [S9E],2.58
24,AFLELPHGFGGSGYPAAPPAVPFA [S9F],1.45

row,Variant,protein stability index
1,AFLELPHGGGGSGYPAAPPAVPFA [S9G],2.41
2,AFLELPHGHGGSGYPAAPPAVPFA [S9H],2.02
3,AFLELPHGIGGSGYPAAPPAVPFA [S9I],2.12
4,AFLELPHGKGGSGYPAAPPAVPFA [S9K],1.94
5,AFLELPHGLGGSGYPAAPPAVPFA [S9L],1.93
6,AFLELPHGMGGSGYPAAPPAVPFA [S9M],1.9
7,AFLELPHGNGGSGYPAAPPAVPFA [S9N],2.61
8,AFLELPHGPGGSGYPAAPPAVPFA [S9P],2.61
9,AFLELPHGQGGSGYPAAPPAVPFA [S9Q],2.63
10,AFLELPHGRGGSGYPAAPPAVPFA [S9R],2.68
11,AFLELPHGTGGSGYPAAPPAVPFA [S9T],2.1
12,AFLELPHGVGGSGYPAAPPAVPFA [S9V],2.17
13,AFLELPHGWGGSGYPAAPPAVPFA [S9W],2.31
14,AFLELPHGYGGSGYPAAPPAVPFA [S9Y],2.21
15,AFLELPHGSAGSGYPAAPPAVPFA [G10A],2.24
16,AFLELPHGSCGSGYPAAPPAVPFA [G10C],2.55
17,AFLELPHGSDGSGYPAAPPAVPFA [G10D],2.67
18,AFLELPHGSEGSGYPAAPPAVPFA [G10E],2.96
19,AFLELPHGSFGSGYPAAPPAVPFA [G10F],2.36
20,AFLELPHGSHGSGYPAAPPAVPFA [G10H],2.34
21,AFLELPHGSIGSGYPAAPPAVPFA [G10I],2.55
22,AFLELPHGSKGSGYPAAPPAVPFA [G10K],2.01
23,AFLELPHGSLGSGYPAAPPAVPFA [G10L],2.22
24,AFLELPHGSMGSGYPAAPPAVPFA [G10M],2.3

row,Variant,protein stability index
1,AFLELPHGSNGSGYPAAPPAVPFA [G10N],2.42
2,AFLELPHGSPGSGYPAAPPAVPFA [G10P],2.44
3,AFLELPHGSQGSGYPAAPPAVPFA [G10Q],2.08
4,AFLELPHGSRGSGYPAAPPAVPFA [G10R],2.07
5,AFLELPHGSSGSGYPAAPPAVPFA [G10S],2.7
6,AFLELPHGSTGSGYPAAPPAVPFA [G10T],2.1
7,AFLELPHGSVGSGYPAAPPAVPFA [G10V],2.2
8,AFLELPHGSWGSGYPAAPPAVPFA [G10W],1.25
9,AFLELPHGSYGSGYPAAPPAVPFA [G10Y],1.9
10,AFLELPHGSGASGYPAAPPAVPFA [G11A],2.5
11,AFLELPHGSGCSGYPAAPPAVPFA [G11C],1.9
12,AFLELPHGSGDSGYPAAPPAVPFA [G11D],2.89
13,AFLELPHGSGESGYPAAPPAVPFA [G11E],2.77
14,AFLELPHGSGFSGYPAAPPAVPFA [G11F],2.19
15,AFLELPHGSGHSGYPAAPPAVPFA [G11H],2.15
16,AFLELPHGSGISGYPAAPPAVPFA [G11I],2.23
17,AFLELPHGSGKSGYPAAPPAVPFA [G11K],2.07
18,AFLELPHGSGLSGYPAAPPAVPFA [G11L],1.93
19,AFLELPHGSGMSGYPAAPPAVPFA [G11M],2.01
20,AFLELPHGSGNSGYPAAPPAVPFA [G11N],2.07
21,AFLELPHGSGPSGYPAAPPAVPFA [G11P],2.28
22,AFLELPHGSGQSGYPAAPPAVPFA [G11Q],2.2
